Laboratory results taken from patent US20200407467.

Experiments:
[1] = target: unmapped_NM peptide 91-180 (human library)
[2] = target: T1, HUWE1 peptide 2296-2485 (human library), Q7Z6Z7
T1 chain: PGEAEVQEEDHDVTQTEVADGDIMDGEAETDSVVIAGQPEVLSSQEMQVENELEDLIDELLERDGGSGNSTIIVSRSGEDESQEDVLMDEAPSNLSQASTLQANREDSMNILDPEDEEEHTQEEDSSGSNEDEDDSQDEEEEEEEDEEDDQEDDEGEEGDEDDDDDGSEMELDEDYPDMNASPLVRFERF

[3] = target: T2, HUWE1 peptide 2328-2384 (mouse library), Q7TMY8
T2 chain: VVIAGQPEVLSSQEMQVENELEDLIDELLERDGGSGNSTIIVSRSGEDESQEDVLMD

[4] = target: T3, LYST peptide 1171-1260 (human library), Q99698
T3 chain: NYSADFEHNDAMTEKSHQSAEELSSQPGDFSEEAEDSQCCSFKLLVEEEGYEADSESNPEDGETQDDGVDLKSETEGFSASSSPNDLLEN

[5] = target: T4, HUWE1 peptide 2251-2340 (human library), Q7Z6Z7
T4 chain: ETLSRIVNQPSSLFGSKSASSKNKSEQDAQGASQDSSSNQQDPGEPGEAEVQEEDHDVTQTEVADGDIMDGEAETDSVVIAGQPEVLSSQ

[6] = target: T5, Efs peptide 181-270 (human library), O43281
T5 chain: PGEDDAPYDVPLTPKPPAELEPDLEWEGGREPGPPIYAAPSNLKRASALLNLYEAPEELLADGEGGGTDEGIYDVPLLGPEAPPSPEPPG

[7] = target: T6, IL1B peptide 75-131 (mouse library)
T6 chain: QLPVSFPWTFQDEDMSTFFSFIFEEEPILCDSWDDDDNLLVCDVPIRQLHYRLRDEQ

[8] = target: T7, C14orf93 peptide 91-180 (human library), Q9H972
T7 chain: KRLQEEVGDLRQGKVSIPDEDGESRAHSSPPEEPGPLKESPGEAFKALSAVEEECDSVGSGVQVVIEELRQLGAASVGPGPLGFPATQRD

[9] = target: T8, TNS3 peptide 451-540 (human library), Q68CZ2
T8 chain: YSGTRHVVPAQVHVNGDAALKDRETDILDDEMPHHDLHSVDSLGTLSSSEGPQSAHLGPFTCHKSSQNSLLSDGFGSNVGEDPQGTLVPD

[10] = target: MAP3K14 peptide 496-585 (human library), Q99558
[11] = target: T9, Hyls1 peptide 1-90 (human library), Q96M11
T9 chain: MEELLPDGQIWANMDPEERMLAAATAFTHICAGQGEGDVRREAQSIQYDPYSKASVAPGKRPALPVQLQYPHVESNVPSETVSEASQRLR

[12] = target: HECT, UBA and WWE Domain Containing E3 Ubiquitin Protein Ligase 1 (HUWE1), endogenous in THP-1 cells, Q7Z6Z7
[13] = target: T10, ERO1L peptide 91-180 (human library), Q96HE7
T10 chain: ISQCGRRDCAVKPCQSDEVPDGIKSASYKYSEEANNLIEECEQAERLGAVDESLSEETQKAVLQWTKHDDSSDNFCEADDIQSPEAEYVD

[14] = target: T11, ANAPC1 peptide 1-90 (human library), Q9H1A4
T11 chain: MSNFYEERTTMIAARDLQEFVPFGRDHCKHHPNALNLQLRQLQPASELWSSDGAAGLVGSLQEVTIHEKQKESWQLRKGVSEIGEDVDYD

[15] = target: T12, Hmcn2 peptide 1576-1665 (human library), Q8NDA2
T12 chain: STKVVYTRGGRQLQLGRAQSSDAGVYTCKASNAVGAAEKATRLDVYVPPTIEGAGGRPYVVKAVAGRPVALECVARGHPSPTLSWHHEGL

[16] = target: T7-SEPARATE PreScission-cleavable clone, monovalent display (T7Select1-2b)
[17] = target: T13, GSDMD peptide 222-278 (mouse library)
T13 chain: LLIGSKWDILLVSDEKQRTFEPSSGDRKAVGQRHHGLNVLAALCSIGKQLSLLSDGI

[18] = target: T14, BSN peptide 631-720 (human library), Q9UPA5
T14 chain: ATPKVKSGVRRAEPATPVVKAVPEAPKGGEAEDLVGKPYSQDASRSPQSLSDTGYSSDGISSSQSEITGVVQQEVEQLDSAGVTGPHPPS

[19] = target: T15, IL1B peptide 0-56 (mouse library)
T15 chain: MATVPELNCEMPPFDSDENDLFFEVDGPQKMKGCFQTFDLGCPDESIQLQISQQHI

[20] = target: T16, hoxa2 peptide 271-360 (human library), O43364
T16 chain: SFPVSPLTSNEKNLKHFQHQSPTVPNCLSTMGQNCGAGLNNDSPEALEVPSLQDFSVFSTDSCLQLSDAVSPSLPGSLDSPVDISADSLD

[21] = target: T17, UHRF1BP1L peptide 991-1080 (human library), A0JNW5
T17 chain: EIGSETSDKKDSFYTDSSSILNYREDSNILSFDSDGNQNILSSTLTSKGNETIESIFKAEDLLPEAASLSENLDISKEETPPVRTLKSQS

[22] = target: T18, HMGXB4 peptide 226-315 (human library), Q9UGU5
T18 chain: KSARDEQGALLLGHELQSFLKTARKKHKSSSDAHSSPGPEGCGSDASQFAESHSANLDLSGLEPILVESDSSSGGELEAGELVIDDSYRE

[23] = target: T19, HUWE1 peptide 2291-2347 (mouse library), Q7TMY8
T19 chain: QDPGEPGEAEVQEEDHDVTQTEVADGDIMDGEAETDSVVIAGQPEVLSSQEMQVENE

[24] = target: Gasdermin-D (peptides of the human library)
[25] = target: LOC100287737 peptide 496-585 (human library)
[26] = target: T20, Znf462 peptide 1-90 (human library), Q96JM2
T20 chain: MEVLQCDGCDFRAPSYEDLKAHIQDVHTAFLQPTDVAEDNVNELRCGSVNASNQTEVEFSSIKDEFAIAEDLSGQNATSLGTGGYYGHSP

[27] = target: T21, GSDMD peptide 259-315 (mouse library)
T21 chain: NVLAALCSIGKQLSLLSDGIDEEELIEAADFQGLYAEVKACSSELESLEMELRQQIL

[28] = target: T22, ZNF469 peptide 811-900 (human library), Q96JG9
T22 chain: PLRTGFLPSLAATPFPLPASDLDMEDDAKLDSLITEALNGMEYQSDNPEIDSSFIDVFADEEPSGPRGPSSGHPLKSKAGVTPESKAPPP

[29] = target: T23, IL1B peptide 74-130 (mouse library)
T23 chain: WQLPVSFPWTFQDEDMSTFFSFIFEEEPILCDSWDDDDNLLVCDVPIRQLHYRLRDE

[30] = target: T24, HUWE1 peptide 2341-2430 (human library), Q7Z6Z7
T24 chain: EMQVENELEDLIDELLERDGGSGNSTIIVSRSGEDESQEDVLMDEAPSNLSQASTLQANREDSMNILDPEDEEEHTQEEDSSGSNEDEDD

B1: Caspase-1 (recombinant) (protein)
chain: NPAMPTSSGSEGNVKLCSLEEAQRIWKQKSAEIYPIMDKSSRTRLALIICNEEFDSIPRRTGAEVDITGMTMLLQNLGYSVDVKKNLTASDMTTELEAFAHRPEHKTSDSTFLVFMSHGIREGICGKKHSEQVPDILQLNAIFNMLNTKNCPSLKDKPKVIIIQACRGDSPGVVWFKDSVGVSGNLSLPTTEEFEDDAIKKAHIEKDFIAFCSSTPDNVSWRHPTMGSVFIGRLIEHMQEYACSCDVEEIFRKVRFSFEQPDGRAQMPTTERVTLTRCFYLFPGH
[1]
  Caspase1 fold change: 18.7 fold
[2]
  Caspase1 fold change: 22.7 fold
[3]
  Caspase1 fold change: 23.1 fold
[4]
  Caspase1 fold change: 21 fold
[5]
  Caspase1 fold change: 17.6 fold
[6]
  Caspase1 fold change: 21.1 fold
[7]
  Caspase1 fold change: 8.8 fold
[8]
  Caspase1 fold change: 18.2 fold
[9]
  Caspase1 fold change: 18.7 fold
[10]
  Caspase1 fold change: 16.5 fold
[11]
  Caspase1 fold change: 19.7 fold
[12]
  Western blot, cleavage of endogenous HUWE1 in THP-1 lysate: robust cleavage of endogenous HUWE1
[13]
  Caspase1 fold change: 19.8 fold
[14]
  Caspase1 fold change: 16.4 fold
[15]
  Caspase1 fold change: 16.3 fold
[16]
  enrichment of the PreScission digestible clone spiked into the human library: no enrichment is observed when digested with Caspase-1
[17]
  Caspase1 fold change: 4.23 fold
[18]
  Caspase1 fold change: 18.8 fold
[19]
  Caspase1 fold change: 8.1 fold
[20]
  Caspase1 fold change: 17.1 fold
[21]
  Caspase1 fold change: 16.4 fold
[22]
  Caspase1 fold change: 16.5 fold
[23]
  Caspase1 fold change: 6.13 fold
[24]
  enrichment in SEPARATE (human library digest): did not score in the assay
[25]
  Caspase1 fold change: 16.4 fold
[26]
  Caspase1 fold change: 19.1 fold
[27]
  Caspase1 fold change: 6.78 fold
[28]
  Caspase1 fold change: 16.8 fold
[29]
  Caspase1 fold change: 13.2 fold
[30]
  Caspase1 fold change: 16.6 fold
